The values that follow come from publication PMC4338441, “Non-catalytic motor domains enable processive movement and functional diversification of the kinesin-14 Kar3” (eLife, 2015).

First the molecules themselves.
B5: Cik1–Kar3 heterodimer (full-length Cik1-1xFLAG with Halo-Kar3) (complex, S. cerevisiae (S288c))
chain 1: MESLPRTPTKGRSTQHLSTPSPKNDILAMNGHKRRNTTTPPPKHTLLKPQRTDIHRHSLASQSRISMSPNRELLKNYKGTANLIYGNQKSNSGVTSFYKENVNELNRTQAILFEKKATLDLLKDELTETKEKINAVNLKFETLREEKIKIEQQLNLKNNELISIKEEFLSKKQFMNEGHEIHLKQLAASNKKELKQMENEYKTKIEKLKFMKIKQFENERASLLDKIEEVRNKITMNPSTLQEMLNDVEQKHMLEKEEWLTEYQSQWKKDIELNNKHMQEIESIKKEIENTLKPELAEKKKLLTEKRNAYEAIKVKVKEKEEETTRLRDEVALKQKTNLETLEKIKELEEYIKDTELGMKELNEILIKEETVRRTLHNELQELRGNIRVYCRIRPALKNLENSDTSLINVNEFDDNSGVQSMEVTKIQNTAQVHEFKFDKIFDQQDTNVDVFKEVGQLVQSSLDGYNVCIFAYGQTGSGKTFTMLNPGDGIIPSTISHIFNWINKLKTKGWDYKVNCEFIEIYNENIVDLLRSDNNNKEDTSIGLKHEIRHDQETKTTTITNVTSCKLESEEMVEIILKKANKLRSTASTASNEHSSRSHSIFIIHLSGSNAKTGAHSYGTLNLVDLAGSERINVSQVVGDRLRETQNINKSLSCLGDVIHALGQPDSTKRHIPFRNSKLTYLLQYSLTGDSKTLMFVNISPSSSHINETLNSLRFASKVNSTRLVSRK
chain 2: MNNSKIPKLSFHSDPNNVTRDFPKTKRQKVQKREMDMILTPNNNKLNILHSSGSGIRRCYTDDTSATYTKKLTFGGDPKIIERVKNNERKVRKDIDSLLNAISEIEKESVRIHARELPAITLELDAKVKACRELQNEIDGLSTEMDLKDNQCDLQRKNVELSSKNIVSMHAVKVQEFENDLEEELSNAKREWTYKLMEVENLKPDERLTDEMRQLKTEFEEVNRKLFILQNENENECKNYKKELDKKFEIFKKVKNDARIELDGEQERLSKVLKDLQDTHGELKENIKTCRDEFNDFEKRIGEAEVNFHSMELAVVPLKKKLASTSQALTQVQEEKKQVEGEANNWKKKYVNELEKVQQELYTRQNLATSIEEIKGYTRCFAYANERQMPDEFHINYVDRCICENSGEKRVQVFDRVVLEEIHKDHKRLYNECIPFLEKYISKLINCSIIVVSQQPTAPMKKTLLKQLIEQYGENYKMTLNILHLDGSIKHSDVGLDNPTEIRDLSQDEECMNILTLDTKLGKDEESHSMNIYIGSMSTVQLNRELDDAPSVLSHILTKTKQCFVFKINAGENIEKALALAGKLKRTITLPQLD
modifications: HaloTag TMR ligand or HaloTag Alexa488 ligand covalently bound to the HaloTag (imaging experiments)
notes: also called Cik1–Kar3-Halo; Cik1–Halo–Kar3; source: if needed MonoS; not shown: HaloTag, N-terminal, kept

Experiment [1] deals with B5. Kind of experiment: pull-down; 0.1–1 μM GST-tagged bait immobilised on glutathione sepharose; binding partner at a constant 0.5–1 μM; 25 mM Hepes pH 7.2, 250 mM NaCl, 1 mM MgCl2, 1 mM EGTA, 0.5 mM DTT, 0.05% NP-40; 1 hr at 4°C; SDS-PAGE, Coomassie. Particulars: both partners purified.
The target of experiment [2] is B5. Nature of the experiment: SEC; analytical size exclusion chromatography of Cik1–Kar3 and Bim1 individually or in combination. Particulars: both partners purified. For orientation: In gel filtration, larger molecules generally elute earlier.
The target in experiment [3] is T1, Halo-Kar3 (full-length Kar3 fused to a HaloTag) (S. cerevisiae (S288c), UniProt P17119 1-729, HaloTag TMR ligand (tetramethylrhodamine) or HaloTag Alexa488 ligand covalently bound to the HaloTag).
T1 construct: methods and legends say amino-terminal; also called Kar3-Halo; Kar3-HALO; not shown: HaloTag, N-terminal, kept
T1 sequence (looked up): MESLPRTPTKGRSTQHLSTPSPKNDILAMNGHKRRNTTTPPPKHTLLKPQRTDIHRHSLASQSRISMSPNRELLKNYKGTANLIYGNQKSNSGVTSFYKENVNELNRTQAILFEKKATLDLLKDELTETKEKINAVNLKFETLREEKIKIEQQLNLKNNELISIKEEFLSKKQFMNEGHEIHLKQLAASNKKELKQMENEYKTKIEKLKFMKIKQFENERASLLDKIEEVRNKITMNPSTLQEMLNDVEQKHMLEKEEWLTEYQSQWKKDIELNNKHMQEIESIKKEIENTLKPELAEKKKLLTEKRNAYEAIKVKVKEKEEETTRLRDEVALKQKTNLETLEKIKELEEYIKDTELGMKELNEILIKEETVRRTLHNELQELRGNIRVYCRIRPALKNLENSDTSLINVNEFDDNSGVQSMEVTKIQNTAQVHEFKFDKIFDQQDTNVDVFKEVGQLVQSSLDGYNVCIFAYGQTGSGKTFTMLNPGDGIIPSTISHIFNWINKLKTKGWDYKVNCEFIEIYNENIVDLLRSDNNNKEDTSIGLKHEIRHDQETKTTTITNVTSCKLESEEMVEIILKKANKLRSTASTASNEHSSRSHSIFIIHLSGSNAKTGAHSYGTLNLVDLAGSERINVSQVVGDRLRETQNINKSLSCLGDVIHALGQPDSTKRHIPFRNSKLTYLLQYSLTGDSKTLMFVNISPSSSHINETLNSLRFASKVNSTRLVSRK
Nature of the experiment: co-IP; two subunits co-overexpressed in S. cerevisiae; FLAG-tagged subunit bound to M2 anti-FLAG affinity agarose (lysis buffer 300 mM NaCl, washes 150 mM NaCl), HaloTag labelled on the resin, eluted with 3xFLAG peptide; Coomassie SDS-PAGE and fluorescence of the Halo-Kar3 subunit. The settings on record: partners not purified.

Experiment [4] deals with T2, recombinant full-length Ndc80 complex (Ndc80p-6xHis/Nuf2p-EGFP and Spc24p/6xHis/Spc25p) (UniProt P40460 1-691; P33895 1-451; Q04477 1-213; P40014 1-221).
T2 construct: Ndc80p, budding yeast; Nuf2p, budding yeast; Spc24p, budding yeast; Spc25p, budding yeast; also called Ndc80-eGFP complex; Ndc80 kinetochore complex; source: recombinant; expression and purification as described previously (Lampert et al., 2013; Lampert et al., 2010); copies: + + +
Nature of the experiment: in vitro recruitment to microtubules (TIRF microscopy); bulk recruitment assay in the absence of nucleotide; TMR-labeled Kar3 motors and fluorescently labeled recombinant Ndc80 complex on surface-immobilised taxol-stabilized microtubules. The settings on record: both partners purified.

T2 sequence (P40460 whole entry, chain 1 of 4): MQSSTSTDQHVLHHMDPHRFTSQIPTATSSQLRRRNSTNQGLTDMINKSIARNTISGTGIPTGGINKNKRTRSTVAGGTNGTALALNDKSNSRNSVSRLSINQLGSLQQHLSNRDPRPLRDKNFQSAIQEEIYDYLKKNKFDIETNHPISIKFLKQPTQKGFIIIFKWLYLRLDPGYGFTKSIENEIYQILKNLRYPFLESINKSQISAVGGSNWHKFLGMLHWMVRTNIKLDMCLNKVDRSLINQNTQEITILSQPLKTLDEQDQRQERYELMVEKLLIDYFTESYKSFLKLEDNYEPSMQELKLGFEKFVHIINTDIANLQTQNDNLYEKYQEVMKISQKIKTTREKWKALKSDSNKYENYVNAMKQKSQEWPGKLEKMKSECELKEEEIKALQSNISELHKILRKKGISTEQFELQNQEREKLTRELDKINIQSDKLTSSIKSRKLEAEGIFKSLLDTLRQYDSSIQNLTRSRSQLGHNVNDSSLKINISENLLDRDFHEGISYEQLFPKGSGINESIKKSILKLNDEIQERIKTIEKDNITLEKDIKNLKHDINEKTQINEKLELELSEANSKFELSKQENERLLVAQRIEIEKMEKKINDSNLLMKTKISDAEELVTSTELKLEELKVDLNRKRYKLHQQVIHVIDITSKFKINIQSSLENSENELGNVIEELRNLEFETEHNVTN
T2 sequence (P33895 whole entry, chain 2 of 4): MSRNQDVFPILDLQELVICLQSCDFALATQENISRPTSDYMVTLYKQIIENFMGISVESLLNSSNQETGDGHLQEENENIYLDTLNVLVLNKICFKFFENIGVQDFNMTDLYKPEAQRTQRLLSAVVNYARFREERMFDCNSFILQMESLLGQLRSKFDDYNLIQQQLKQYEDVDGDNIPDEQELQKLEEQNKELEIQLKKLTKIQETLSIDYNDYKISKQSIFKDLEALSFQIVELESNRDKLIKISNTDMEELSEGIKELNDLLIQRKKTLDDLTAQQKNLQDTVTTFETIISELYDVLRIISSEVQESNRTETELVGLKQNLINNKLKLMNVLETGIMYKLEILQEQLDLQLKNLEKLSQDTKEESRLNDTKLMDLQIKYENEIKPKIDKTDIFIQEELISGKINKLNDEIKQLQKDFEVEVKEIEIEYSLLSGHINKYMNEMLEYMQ
T2 sequence (Q04477 whole entry, chain 3 of 4): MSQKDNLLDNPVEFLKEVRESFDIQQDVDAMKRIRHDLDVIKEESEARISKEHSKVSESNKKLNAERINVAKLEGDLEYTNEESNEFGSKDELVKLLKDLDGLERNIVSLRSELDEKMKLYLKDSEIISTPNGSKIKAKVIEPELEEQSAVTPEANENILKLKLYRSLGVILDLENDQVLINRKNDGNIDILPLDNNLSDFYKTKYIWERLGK
T2 sequence (P40014 whole entry, chain 4 of 4): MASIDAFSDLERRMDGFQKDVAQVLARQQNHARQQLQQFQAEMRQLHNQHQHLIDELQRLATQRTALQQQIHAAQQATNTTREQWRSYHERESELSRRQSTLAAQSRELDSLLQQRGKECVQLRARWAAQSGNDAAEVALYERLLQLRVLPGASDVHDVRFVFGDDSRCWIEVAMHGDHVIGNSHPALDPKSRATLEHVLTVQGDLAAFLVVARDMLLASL

B1: GST-Bim1^185–344 (domain or fragment, budding yeast, UniProt P40013 185-344, looked up)
chain: IQAELTKSQETIGSLNEEIEQYKGTVSTLEIEREFYFNKLRDIEILVHTTQDLINEGVYKFNDETITGHGNGNGGALLRFVKKVESILYATAEGFEMNDGEDELNDKNLGEHGTVPNQGGYANSNGEVNGNEGSNHDVIMQNDEGEVGVSNNLIIDEETF
notes: also called C-terminal EB homology domain of Bim1; source: recombinant; expressed and purified as described previously (Zimniak et al., 2009)
On to B1, for which the binding result in experiment [1] was “binds”.

B2: GST-Bim1^FL (natural protein, budding yeast, UniProt P40013 1-344, looked up)
chain: MSAGIGESRTELLTWLNGLLNLNYKKIEECGTGAAYCQIMDSIYGDLPMNRVKFNATAEYEFQTNYKILQSCFSRHGIEKTVYVDKLIRCKFQDNLEFLQWLKKHWIRHKDESVYDPDARRKYRPIITNNSATKPRTVSNPTTAKRSSSTGTGSAMSGGLATRHSSLGINGSRKTSVTQGQLVAIQAELTKSQETIGSLNEEIEQYKGTVSTLEIEREFYFNKLRDIEILVHTTQDLINEGVYKFNDETITGHGNGNGGALLRFVKKVESILYATAEGFEMNDGEDELNDKNLGEHGTVPNQGGYANSNGEVNGNEGSNHDVIMQNDEGEVGVSNNLIIDEETF
notes: Bim1, the EB1 homologue of budding yeast, full length; also called full-length Bim1; source: recombinant; expressed and purified as described previously (Zimniak et al., 2009)
Consider B2, for which the binding result in experiment [1] is “binds”.

B3: Bim1 (as used in analytical size exclusion chromatography) (natural protein, budding yeast, UniProt P40013 1-344, looked up)
chain: MSAGIGESRTELLTWLNGLLNLNYKKIEECGTGAAYCQIMDSIYGDLPMNRVKFNATAEYEFQTNYKILQSCFSRHGIEKTVYVDKLIRCKFQDNLEFLQWLKKHWIRHKDESVYDPDARRKYRPIITNNSATKPRTVSNPTTAKRSSSTGTGSAMSGGLATRHSSLGINGSRKTSVTQGQLVAIQAELTKSQETIGSLNEEIEQYKGTVSTLEIEREFYFNKLRDIEILVHTTQDLINEGVYKFNDETITGHGNGNGGALLRFVKKVESILYATAEGFEMNDGEDELNDKNLGEHGTVPNQGGYANSNGEVNGNEGSNHDVIMQNDEGEVGVSNNLIIDEETF
notes: Bim1, the EB1 homologue of budding yeast; source: recombinant; expressed and purified as described previously (Zimniak et al., 2009)
In the case of B3, the binding result in experiment [2] was “binds”.

B4: Cik1-1xFLAG (full-length Cik1, aa 1–594) (natural protein, S. cerevisiae (S288c), UniProt Q01649 1-594, looked up)
chain: MNNSKIPKLSFHSDPNNVTRDFPKTKRQKVQKREMDMILTPNNNKLNILHSSGSGIRRCYTDDTSATYTKKLTFGGDPKIIERVKNNERKVRKDIDSLLNAISEIEKESVRIHARELPAITLELDAKVKACRELQNEIDGLSTEMDLKDNQCDLQRKNVELSSKNIVSMHAVKVQEFENDLEEELSNAKREWTYKLMEVENLKPDERLTDEMRQLKTEFEEVNRKLFILQNENENECKNYKKELDKKFEIFKKVKNDARIELDGEQERLSKVLKDLQDTHGELKENIKTCRDEFNDFEKRIGEAEVNFHSMELAVVPLKKKLASTSQALTQVQEEKKQVEGEANNWKKKYVNELEKVQQELYTRQNLATSIEEIKGYTRCFAYANERQMPDEFHINYVDRCICENSGEKRVQVFDRVVLEEIHKDHKRLYNECIPFLEKYISKLINCSIIVVSQQPTAPMKKTLLKQLIEQYGENYKMTLNILHLDGSIKHSDVGLDNPTEIRDLSQDEECMNILTLDTKLGKDEESHSMNIYIGSMSTVQLNRELDDAPSVLSHILTKTKQCFVFKINAGENIEKALALAGKLKRTITLPQLD
notes: source: if needed MonoS; not shown: 1xFLAG, C-terminal, kept
For the molecule B4, in experiment [3], the binding result was “binds”. As to B5, the binding result in experiment [4] is recorded as “binds”.
